The assay deals with SmCAMTA2, split-YFP fusion for BiFC (Solanum melongena (eggplant)).

Consider “SmERF1, construct for BiFC (natural protein)”, for which the LUC/REN ratio of the SmCBF2 promoter-LUC reporter in N. benthamiana leaves when SmERF1-62-SK and SmCAMTA2-62-SK were co-present is 2 fold.

For the origin of these results see publication PMC10888690.
